These results are taken from patent EP4567818A1 (Nanjing GenScript Biotech Co., Ltd., dated 2025).

For assay [1], the target named is T1, TNFRSF9 protein (also referred to as CD137 protein) (Homo sapiens (Human), UniProt Q07011 24-186).
T1 construct: also called recombinant TNFRSF9 protein
Briefly: ELISA on coated TNFRSF9, CHO-S expression supernatant diluted 100-fold.

Assay [2] concerns the target T1, TNFRSF9 protein (also referred to as …). Briefly: indirect ELISA, purified antibody on coated recombinant TNFRSF9 (0.5 ug/ml). Background: ELISA stands for enzyme-linked immunosorbent assay.

B1: rabbit monoclonal antibody 4C2-WTH before humanization (antibody, human IgG1, V domains shown)
VH: QSVEESGGRLVTPGTPLTLTCTVSGFSLGTFPIGWVRQAPGSGLEWIGIFNTDGSAAYASWARGRFTVFKNSTTVDLKMTSPTTEDTATYFCARINADYSGWYFGIWGPGTLVTVSS
VL: EMTQTPASVEVAVGGTVTIKCQASQSIYSYLAWYQQKPGQPPKPLIYEASKTPSGVPSRFKGSGSGTEYTLTISGVQCEDAATYYCQKGYSVSNVAFGGGTEVVVKR
notes: As tested it is a chimera: the original rabbit variable regions with the human IgG1 constant region, expressed from pcDNA3.4 in CHO-S cells; also called wild-type antibody; anti-CD137 rabbit antibody
Consider B1, for which the “OD450 (100-fold dilution)” value in assay [1] was determined as 3.33 OD450. For the same molecule, in assay [2], the EC50 was found to be 3.8 ng/mL.

What is called EC50 is the concentration giving half of the maximal effect.
